In US20200131474A1, “METHODS AND COMPOSITIONS FOR OCULAR CELL THERAPY” (Novartis AG, priority 2018, published 2020):

Columns and labels:
limbal stem cells = test: Human limbal stem cell population expansion, immunohistochemical observation of p63alpha phenotype; type: cell-based; details: for colony formation and p63alpha expression: 10 micromolar, 6 days after isolation without passaging, DMSO as negative control
Experimental: Cells were first cultured at 37° C. in 5% CO2 for 6 days after isolation without passaging (FIGS. 2A, 2B and 2C).
To evaluate the ability of the compounds to enable LSC expansion after two passages, LSCs were passaged and cultured for two weeks in the presence of compound example 3 to enable expansion (FIG. 2D). Limbal stem cells (LSCs) were passaged by treating cultures with Accutase for 10 minutes at 37° C., rinsing the cell suspension by centrifugation and plating cells in fresh LSC culture medium supplemented with LATS inhibitor compound example 3.
In order to observe that the expanded cell population expressed p63alpha, this was measured by immunohistochemistry as follows. Cell cultures were fixed with 4% PFA for 20 minutes, permeabilized and blocked in a blocking solution of 0.3% Triton X-100 (Sigma-Aldrich) and 3% donkey serum in PBS for 30 minutes. Cells were then labeled with primary antibody in the blocking solution for 12 hours at 4° C. Primary antibody used was p63alpha from Cell Signalling. Samples were washed in PBS three times and donkey-raised secondary antibody Alexa Fluor 488 (Molecular Probes) at 1:500 dilution were applied for 30 minutes at room temperature. Cells were counter-stained with a human nuclear antigen antibody (Millipore) at a 1:500 dilution in order to label all cells in the culture and confirm their human identity. […] Fluorescence was observed using a Zeiss LSM 880 confocal microscope.

phospho-YAP (ser127) = test: Exposure of LSCs to LATS inhibitors, YAP phosphorylation by western blot; type: cell-based, human; details: 10 micromolar, 1 hour, DMSO as negative control
Experimental: The medium was then replaced by fresh limbal epithelium cell culture medium (DMEM F12 supplemented with 10% human serum and 1.3 mM calcium chloride) supplemented with LATS inhibitor compound example no. […] Cells were cultured under these conditions for 1 hour at 37° C. in 5% CO2.
To measure the effect of the LATS inhibitors on the downstream target YAP, the YAP phosphorylation levels were measured by western blot as follows. The cell pellets were obtained by trypsin dissociation and centrifugation and washed with PBS. The pellets were lysed with 30 microlitres of RIPA lysis buffer containing protease inhibitor cocktail (Life Technologies) for 30 minutes, with vortexing every 10 minutes. The cell debris were then pelleted at 4° C. for 15 minutes at 14 k rpm and the protein lysate was collected. Protein concentration was quantified using a micro BCA kit (Pierce). Fifteen micrograms of total protein was loaded in each well of 4-20% TGX gels (BioRad) and Western blotting was performed according to the manufacturer's instructions. […] Membranes were stained with HRP-conjugated secondary antibodies, rinsed and imaged using a ChemiDoc system (Biorad) according to the manufacturer's instructions.

YAP = test: Exposure of LSCs to LATS inhibitors, intracellular YAP distribution by immunohistochemistry; type: cell-based, human; details: 10 micromolar, 24 hours, compared with DMSO control; data not shown
Experimental: Research-consented cadaveric human corneas were obtained from eye banks. Limbal rims were dissected and partially dissociated in a 1.2 mg/ml dispase solution for 2 hours at 37° C. followed by 10 minutes in TrypLE (Life Technologies). Pieces of limbal crypts were then carefully cut out of the partially dissociated limbal rims and rinsed by centrifugation). Cells obtained in this manner were used in the Examples below.
Cells were cultured under these conditions for 24 hours at 37° C. in 5% CO2.
To measure the effect of the LATS inhibitors on the downstream target YAP, intracellular YAP distribution was analyzed by immunohistochemistry. Cell cultures were fixed with 4% PFA for 20 minutes, permeabilized and blocked in a blocking solution of 0.3% Triton X-100 (Sigma-Aldrich) and 3% donkey serum in PBS for 30 minutes. Cells were then labeled with primary antibody in the blocking solution for 12 hours at 4° C. Primary antibody used was anti-YAP from Santa Cruz Biotechnology. Samples were washed in PBS three times and donkey-raised secondary antibody Alexa Fluor 488 (Molecular Probes) at 1:500 dilution were applied for 30 minutes at room temperature. […] Fluorescence was observed using a Zeiss LSM 880 confocal microscope.

[1] = system: genomic DNA purified from male human peripheral blood mononuclear cells; test: Biochemical method for potential off-target genomic sites cleaved by Cas9 and B2M guides; details: guide concentration of 64 nM
Source text: A biochemical method (See, e.g., Cameron et al., Nature Methods. 6, 600-606; 2017) was used to determine potential off-target genomic sites cleaved by Cas9 and selected B2M guides.

[2] = system: potential off-target sites; test: Off-target activity detection in limbal stem cells by targeted PCR and NGS; type: cell-based, human; details: edited LSCs vs non-edited PBMCs; positive sites of sequenced loci
Experimental: Potential CRISPR/Cas9-mediated cutting sites identified above were evaluated using targeted PCR and NGS in genome-edited expanded LSCs.
Selected sgRNAs (SEQ ID NO: 120, 162, 166, 167, 171, and 175) were further analyzed by amplicon sequencing in edited and non-edited cells. Primers flanking the potential off-target sites for each guide were used to detect indels by NGS analysis in edited LSCs and non-edited peripheral blood mononuclear cells. Sites that had either (1) a difference in mean indel percentage between edited and unedited cells greater than 0.5%; or (2) a p value less than 0.05 between edited and unedited indel were further analyzed. NGS sequence reads for such sites were assessed for characteristic indel patterns near the putative Cas9 cut site.

Molecule | off-target Site_Count [1] | Number of sites positive for off-target activity in LSCs [2] | other results
CC(C)(O)CC(C)(C)Nc1nc(-c2ccncc2)nc2cnccc12 [Example 3, 2,4-dimethyl-4-{[2-(pyridin-4-yl)pyrido[3,4-d]pyrimidin-4-yl]amino}pentan-2-ol] | – | – | colony formation and p63alpha expression (limbal stem cells): the cells formed colonies and expressed p63alpha; cell population expansion after passaging, p63alpha expression (limbal stem cells; passaged and cultured for two weeks in the presence of compound): enabled cell population expansion and the formation of confluent cultures expressing p63alpha; YAP phosphorylation levels in human LSCs (Western blot) (phospho-YAP (ser127)): caused a reduction in YAP phosphorylation levels; YAP phosphorylation levels in human LSCs (Western blot) (phospho-YAP (ser127); listed as ex. 3): induce YAP dephosphorylation; YAP immunostaining in the nucleus of LSCs (YAP): stronger
Cc1n[nH]cc1-c1nc(NC2(C)CC2)c2ccncc2n1 [Example 4, 2-(3-methyl-1H-pyrazol-4-yl)-N-(1-methylcyclopropyl)pyrido[3,4-d]pyrimidin-4-amine] | – | – | colony formation and p63alpha expression (limbal stem cells): the cells formed colonies and expressed p63alpha; YAP phosphorylation levels in human LSCs (Western blot) (phospho-YAP (ser127); listed as ex. 4): induce YAP dephosphorylation; YAP phosphorylation levels in human LSCs (Western blot) (phospho-YAP (ser127); listed as example no. 4): caused a reduction in YAP phosphorylation levels; YAP immunostaining in the nucleus of LSCs (YAP): stronger
9-HEYJA000005: gRNA targeting B2M; targeting domain UCACGUCAUCCAGCAGAGAA (SEQ ID NO: 116); sgRNA SEQ ID NO: 167 (nucleic acid, listed as RNA, chemistry not given here) guide: UCACGUCAUCCAGCAGAGAAGUUUUAGAGCUAGAAAUAGCAAGUUAAAAUAAGGCUAGUCCGUUAUCAACUUGAAAAAGUGGCACCGAGUCGGUGCUUUU | 35 | zero | –
CR000442: gRNA targeting B2M; targeting domain GGCCACGGAGCGAGACAUCU (SEQ ID NO: 134); sgRNA SEQ ID NO: 171 (nucleic acid, listed as RNA, chemistry not given here) guide: GGCCACGGAGCGAGACAUCUGUUUUAGAGCUAGAAAUAGCAAGUUAAAAUAAGGCUAGUCCGUUAUCAACUUGAAAAAGUGGCACCGAGUCGGUGCUUUU | 29 | zero | –
CR000446: gRNA targeting B2M; targeting domain AGGGUAGGAGAGACUCACGC (SEQ ID NO: 136); sgRNA SEQ ID NO: 173 (nucleic acid, listed as RNA, chemistry not given here) guide: AGGGUAGGAGAGACUCACGCGUUUUAGAGCUAGAAAUAGCAAGUUAAAAUAAGGCUAGUCCGUUAUCAACUUGAAAAAGUGGCACCGAGUCGGUGCUUUU | 98 | – | –
CR000456: gRNA targeting B2M; targeting domain CUUACCCCACUUAACUAUCU (SEQ ID NO: 139); sgRNA SEQ ID NO: 176 (nucleic acid, listed as RNA, chemistry not given here) guide: CUUACCCCACUUAACUAUCUGUUUUAGAGCUAGAAAUAGCAAGUUAAAAUAAGGCUAGUCCGUUAUCAACUUGAAAAAGUGGCACCGAGUCGGUGCUUUU | 66 | – | –
8-HEYJA000004: gRNA targeting B2M; targeting domain ACUCACGCUGGAUAGCCUCC (SEQ ID NO: 115 in Table 10, 118 in Table 4); sgRNA SEQ ID NO: 166 (nucleic acid, listed as RNA, chemistry not given here) guide: ACUCACGCUGGAUAGCCUCCGUUUUAGAGCUAGAAAUAGCAAGUUAAAAUAAGGCUAGUCCGUUAUCAACUUGAAAAAGUGGCACCGAGUCGGUGCUUUU | 62 | zero | –
4-CR004366: gRNA targeting B2M (Dharmacon); targeting domain CAGUAAGUCAACUUCAAUGU (SEQ ID NO: 111); sgRNA SEQ ID NO: 162 (nucleic acid, listed as RNA, chemistry not given here) guide: CAGUAAGUCAACUUCAAUGUGUUUUAGAGCUAGAAAUAGCAAGUUAAAAUAAGGCUAGUCCGUUAUCAACUUGAAAAAGUGGCACCGAGUCGGUGCUUUU | 92 | zero | –
CR000443: gRNA targeting B2M; targeting domain CGCGAGCACAGCUAAGGCCA (SEQ ID NO: 135); sgRNA SEQ ID NO: 172 (nucleic acid, listed as RNA, chemistry not given here) guide: CGCGAGCACAGCUAAGGCCAGUUUUAGAGCUAGAAAUAGCAAGUUAAAAUAAGGCUAGUCCGUUAUCAACUUGAAAAAGUGGCACCGAGUCGGUGCUUUU | 117 | – | –
CR000453: gRNA targeting B2M; targeting domain CACAGCCCAAGAUAGUUAAG (SEQ ID NO: 137); sgRNA SEQ ID NO: 174 (nucleic acid, listed as RNA, chemistry not given here) guide: CACAGCCCAAGAUAGUUAAGGUUUUAGAGCUAGAAAUAGCAAGUUAAAAUAAGGCUAGUCCGUUAUCAACUUGAAAAAGUGGCACCGAGUCGGUGCUUUU | 82 | – | –
CR000455: gRNA targeting B2M; targeting domain UUACCCCACUUAACUAUCUU (SEQ ID NO: 138); sgRNA SEQ ID NO: 175 (nucleic acid, listed as RNA, chemistry not given here) guide: UUACCCCACUUAACUAUCUUGUUUUAGAGCUAGAAAUAGCAAGUUAAAAUAAGGCUAGUCCGUUAUCAACUUGAAAAAGUGGCACCGAGUCGGUGCUUUU | 48 | zero | –
6-HEYJA000001: gRNA targeting B2M; targeting domain GGCCGAGAUGUCUCGCUCCG (SEQ ID NO: 113); sgRNA SEQ ID NO: 164 (nucleic acid, listed as RNA, chemistry not given here) guide: GGCCGAGAUGUCUCGCUCCGGUUUUAGAGCUAGAAAUAGCAAGUUAAAAUAAGGCUAGUCCGUUAUCAACUUGAAAAAGUGGCACCGAGUCGGUGCUUUU | 8 | – | –
